Assay results reported in the supplement of paper PMC12042874.
± gives the uncertainty stated by the source.

Test: amyloid nucleation score (Sup35N fusion, yeast selection) (log enrichment); library NNK2; higher = more nucleation; inactive = no reads after selection
Outline: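 The nucleation score is a DiMSum log enrichment of output over input reads, centred on the mode score of non-aggregating sequences. Sequences under 100 input reads were excluded, and reads came from Illumina sequencing of plasmid inserts. Psi-negative yeast expressing Sup35N fused to peptides of 20 random codons were induced with 100 μM copper sulfate for 24 hours and grown 7 days at 30°C on medium lacking adenine and uracil. Random libraries had three technical output replicates.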

Substance | amyloid nucleation score
CFSHYHDSFLPGWYYSGNYV | -0.788 ± 0.4
CFSRMRRTEW | -0.142 ± 0.23
CFTNIYRKGMMCYGPFTAMT | -0.214 ± 1.1
CFVNGLRNSHLGNLVWVPIG | -1 ± 0.39
CFVVRE | 0.404 ± 0.46
CGFFKVRENGFCGFKKMSFS | -1.12 ± 1.1
CGILYSFDGRFVYWSSYGSS | -0.353 ± 0.79
CGNPFGLSTHFNYLRRMPWE | 0.116 ± 0.25
CGSQKWVQYKIMKWYK | 0.627 ± 0.57
CGVFCLV | 1.44 ± 0.41
CGVFSLQCYHVDESTRCREF | 6.401 ± 0.061
CGVVSLCSGWSLMYDRGWWG | 10.2 ± 0.054
CGYVEV | 0.244 ± 0.65
CIMMYVT | 0.259 ± 0.17
CISSKHISVGVTDNLVVV | 0.436 ± 0.8
CKALCIKIWVERVTC | 2.31 ± 0.16
CKDTTKPGYFGFDIFPNVYE | 2.37 ± 0.15
CKENFKIFFDFYYGMTSVLS | inactive
CKKLMLILEFWMCMLSLNIA | 3.58 ± 0.072
CKLHRVYAIFFSMD | inactive
CKLTATCQSQMTEIGLGSFA | 3.62 ± 0.046
CKTLVSGGL | -0.344 ± 0.41

Substance | amyloid nucleation score
CLAVIQWFPCIVDMGLECGF | 2.96 ± 0.049
CLCGPRIGLSVFNYVYFGMG | 4.2 ± 0.046
CLDLLWHSWASYLLAGALWW | 0.94 ± 0.74
CLEMFLKLCSLECARMKLPR | 5.673 ± 0.04
CLFWLHQHMQYFHVMGLSPT | 2.21 ± 0.22
CLHCSRFSKTLYRKFRNREN | -0.33 ± 0.76
CLKPFRHTFEFLYQVDFTEV | -1.56 ± 1.1
CLLHMWIGLSSKVGGVRDA | -0.781 ± 0.79
CLLLRVTR | 0.015 ± 0.27
CLPGTCRRCQWGRGIDQSSE | 0.317 ± 0.41
CLSRHAHRRRGMVYAGDYRA | -0.256 ± 0.49
CLTSGHL | 0.372 ± 0.74
CLVINSIKVFYARVGTSYKF | 2.01 ± 0.19
CLVYVGRVPSRIGDHRITAY | 0.966 ± 0.38
CMEETMVSSLKLLTRPMTSR | 0.052 ± 0.29
CMFKQYYYCARAYSVSWTVM | -0.013 ± 0.56
CMGDNVIC | -0.954 ± 0.37
CMLMYVYMIDWRPINFMFF | 5.301 ± 0.041
CMNGPFTLTRPTARGRIRC | 0.32 ± 0.51
CMSNTMCAFVDGYNMHYLVD | inactive
CMYNRLLLLGALFVTPQWVR | 0.079 ± 0.5
CNFHCPI | 2.63 ± 0.17

Substance | amyloid nucleation score
CNFVTILLGMN | 4.85 ± 0.055
CNIRAYDIISTLMHFVLCH | -1.67 ± 0.55
CNLSFVGS | 0.287 ± 0.25
CNNQRYVNNGITRNGRNDAG | -0.604 ± 0.76
CNRAQLNVSPNLDDMRKFGV | -0.506 ± 1
CNRGLKFAVGFKLLTIPTSL | inactive
CNVSSWSFLPPS | inactive
CNYMSVWN | -0.021 ± 0.74
CPLFYMSMISGFEGIFSLHK | inactive
CPLNLPTLGRLATEKRAWG | -0.177 ± 0.79
CQGHQWSYRPVP | 0.684 ± 0.35
CQRTLQTGAYRDGLCIYGLS | 1.38 ± 0.41
CRHYKFV | -0.097 ± 1.1
CRMFSEHSYRRSSLSVPGMN | inactive
CRNLPGVCEMPSGVANYRVL | -0.547 ± 1.1
CRSAVRRILGFNLSRVFSWF | -0.417 ± 0.64
CRSNQNESLNGC | 0.436 ± 0.21
CRSRT | 0.978 ± 0.28
CRSSGFRFTLRKWCWNVNEC | -0.7 ± 0.76
CRSWTHKSHIPVKLSNDTMS | -0.106 ± 0.63
CSCMKFWKFLLIRQSYKPGM | 2.16 ± 0.18
CSEVQNLFNM | inactive

Substance | amyloid nucleation score
CSFCRPFVTCILIRSKVCGW | 1.21 ± 0.11
CSFLYIGLVIPSFEYDHALL | 4.171 ± 0.041
CSFRAFLWCILGGGENFNSS | 2.91 ± 0.065
CSGYSERAPRFCSDLIVCST | 0.574 ± 0.51
CSMFSKLMVNSGLSSVLTVM | 0.047 ± 0.28
CSNSFLI | -0.868 ± 1.1
CSVVTNGLLNMSSFPHVFCM | 1.79 ± 0.11
CSWVRSLYNGIVLKKH | -0.652 ± 0.45
CTCFVLSGSVV | 2.4 ± 0.13
CTCLWNDMRRGP | 1.99 ± 0.25
CTCTDTEDKWVKSGYSRGAH | 2.22 ± 0.079
CTEFSLTDCSSG | inactive
CTFHFVSGHTTTGSR | 1 ± 0.66
CTFLRNIGFLYWYVSPLNLG | inactive
CTQVMTERV | -0.091 ± 0.32
CTSMGA | -0.291 ± 0.79
CTSVGFTYHRDFWYMGFWSR | 0.919 ± 0.15
CTVFCLQRSFGHYSLMMLIN | 2.22 ± 0.12
CVAWKR | 0.554 ± 0.48
CVCDLCVPWVLNFGR | 8.914 ± 0.051
